# Test results published in patent US20120288507A1 (Amgen, published 2012).
# T1: human WISE (human, UniProt Q6X4U4 24-206)
# T1 construct: Recombinant protein secreted from mammalian cells; also called hWISE; huWISE
# T1 sequence: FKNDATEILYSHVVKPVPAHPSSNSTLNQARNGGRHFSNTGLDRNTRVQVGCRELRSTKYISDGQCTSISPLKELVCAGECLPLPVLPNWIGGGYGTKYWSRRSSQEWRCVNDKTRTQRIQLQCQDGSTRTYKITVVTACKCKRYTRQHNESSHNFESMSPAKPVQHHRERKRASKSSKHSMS
# T2: human WISE G115A (human, UniProt Q6X4U4 24-206)
# T2 construct: Alanine mutant of loop 2, used as supernatant of transiently transfected mammalian cells
# T2 chain: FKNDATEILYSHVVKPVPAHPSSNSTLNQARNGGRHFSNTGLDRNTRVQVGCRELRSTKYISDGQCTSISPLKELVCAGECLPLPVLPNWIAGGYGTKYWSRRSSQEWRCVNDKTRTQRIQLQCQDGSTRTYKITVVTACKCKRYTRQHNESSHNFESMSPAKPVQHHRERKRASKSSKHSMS
# T3: human WISE G117A (human, UniProt Q6X4U4 24-206)
# T3 construct: Alanine mutant of loop 2, used as supernatant of transiently transfected mammalian cells
# T3 chain: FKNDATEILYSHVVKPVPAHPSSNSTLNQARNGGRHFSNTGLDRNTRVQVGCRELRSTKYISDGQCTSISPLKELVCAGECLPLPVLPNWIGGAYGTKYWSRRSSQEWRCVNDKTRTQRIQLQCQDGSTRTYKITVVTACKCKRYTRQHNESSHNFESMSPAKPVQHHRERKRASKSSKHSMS
# T4: human WISE N112A (human, UniProt Q6X4U4 24-206)
# T4 construct: Alanine mutant of loop 2, used as supernatant of transiently transfected mammalian cells
# T4 chain: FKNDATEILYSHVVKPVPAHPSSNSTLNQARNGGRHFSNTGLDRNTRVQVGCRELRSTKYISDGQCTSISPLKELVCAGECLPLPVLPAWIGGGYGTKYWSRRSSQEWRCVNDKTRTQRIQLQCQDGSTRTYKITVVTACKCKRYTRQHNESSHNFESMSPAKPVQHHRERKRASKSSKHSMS
# T5: human WISE I114A (human, UniProt Q6X4U4 24-206)
# T5 construct: Alanine mutant of loop 2, used as supernatant of transiently transfected mammalian cells
# T5 chain: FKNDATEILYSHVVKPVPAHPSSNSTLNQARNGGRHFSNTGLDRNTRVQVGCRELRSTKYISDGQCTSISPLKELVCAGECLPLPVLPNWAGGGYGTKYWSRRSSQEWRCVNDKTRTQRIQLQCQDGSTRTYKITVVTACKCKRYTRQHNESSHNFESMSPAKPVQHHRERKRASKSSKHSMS
# T6: human WISE K121A (human, UniProt Q6X4U4 24-206)
# T6 construct: Alanine mutant of loop 2, used as supernatant of transiently transfected mammalian cells
# T6 chain: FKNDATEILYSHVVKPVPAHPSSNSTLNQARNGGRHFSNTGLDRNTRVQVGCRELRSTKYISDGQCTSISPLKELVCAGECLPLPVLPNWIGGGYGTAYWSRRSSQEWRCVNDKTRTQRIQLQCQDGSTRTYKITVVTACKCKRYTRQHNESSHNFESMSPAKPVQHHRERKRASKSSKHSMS
# T7: biotinylated recombinant human WISE (human, UniProt Q6X4U4 24-206, biotinylated (site not stated))
# T7 construct: Same protein as m1, biotinylated; Used in the AlphaScreen with LRP6, in phage panning and on the Octet streptavidin biosensors; also called biotinylated huWise; biotinylated human WISE
# T7 sequence: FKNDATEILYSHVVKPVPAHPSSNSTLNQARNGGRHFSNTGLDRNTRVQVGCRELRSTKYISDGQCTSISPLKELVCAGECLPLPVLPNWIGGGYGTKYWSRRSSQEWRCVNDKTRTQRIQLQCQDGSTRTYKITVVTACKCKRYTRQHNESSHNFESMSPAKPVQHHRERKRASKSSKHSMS
# Experiments:
# [1] = molecular target: T1, human WISE; assay: capture ELISA binding profile (FIG. 23)
# Procedure: (§1) Relative capture of individual WISE mutant proteins or wild type proteins by either neutralizing antibodies or non-neutralizing antibodies was compared to assess whether any of these single amino acid changes affects the binding of an antibody to WISE protein. The bound WISE proteins were then detected using HRP-conjugated affinity-purified polyclonal antibody against WISE.
# (§2) Purified anti-WISE antibodies (0.5 ug/ml) were added onto high-binding ELISA plates pre-coated with 1 ug/ml of goat anti-mouse IgG Fc (Pierce). Plates were incubated for 1 hour in room temperature. Plates were then washed 4× with Wash Buffer. Subsequently alanine scanned WISE loop-2 mutant supernatants from transient transfection cultures (100× diluted) were added and incubated for 1 hour in room temperature. After 4× wash, rabbit anti-WISE Pab-biotin (50 ng/ml)+NeutrAvidin-HRP (Pierce, Cat #31001) were added onto the plates and incubated for 1 hour in room temperature. Plates were again washed 4× with Wash Buffer. Binding was analyzed using 1-Step Ultra TMB-ELISA substrate (Pierce; Cat #34028) according to the manufacturer's instructions.
# [2] = molecular target: T2, human WISE G115A; assay: capture ELISA, WISE mutant supernatant (FIG. 23)
# Procedure: as §1, §2
# [3] = molecular target: T3, human WISE G117A; assay: capture ELISA, WISE mutant supernatant (FIG. 23)
# Procedure: as §1, §2
# [4] = molecular target: T1, human WISE; assay: capture ELISA binding profile (FIG. 24)
# Procedure: as §1, §2
# [5] = molecular target: T2, human WISE G115A; assay: capture ELISA, WISE mutant supernatant (FIG. 24)
# Procedure: as §1, §2
# [6] = molecular target: T3, human WISE G117A; assay: capture ELISA, WISE mutant supernatant (FIG. 24)
# Procedure: as §1, §2
# [7] = molecular target: T4, human WISE N112A; assay: capture ELISA, WISE mutant supernatant (FIG. 25)
# Procedure: as §1, §2
# [8] = molecular target: T5, human WISE I114A; assay: capture ELISA, WISE mutant supernatant (FIG. 25)
# Procedure: as §1, §2
# [9] = molecular target: T2, human WISE G115A; assay: capture ELISA, WISE mutant supernatant (FIG. 25)
# Procedure: as §1, §2
# [10] = molecular target: T6, human WISE K121A; assay: capture ELISA, WISE mutant supernatant (FIG. 25)
# Procedure: as §1, §2
# [11] = molecular target: T1, human WISE; assay: murine hybridoma antibodies; assay not given
# [12] = molecular target: T1, human WISE; assay: capture ELISA binding profile (FIG. 26)
# Procedure: as §1, §2
# [13] = molecular target: T4, human WISE N112A; assay: capture ELISA, WISE mutant supernatant (FIG. 26)
# Procedure: as §1, §2
# [14] = molecular target: T5, human WISE I114A; assay: capture ELISA, WISE mutant supernatant (FIG. 26)
# Procedure: as §1, §2
# [15] = molecular target: T7, biotinylated recombinant human WISE; assay: Octet QK, crude conditioned medium, streptavidin biosensors with biotinylated human WISE
# Procedure: Affinity maturation was performed on D14 IgG2 in order to improve the inhibitory activity. Every residue in all CDRs of heavy chain (31 positions) and light chain (29 positions) was mutated by randomized mutagenesis. Seven heavy chain mutations in 5 positions and ten light chain mutations in 6 positions that improved the binding to human WISE were identified by affinity measurement on Octet QK (ForteBio) using crude condition medium samples and streptavidin Biosensors coated with biotinylated human WISE. L34, L36, H66 and H127 were four top single-residue mutants. Beneficial heavy chain mutation and light chain mutation were paired in matrix by transient transfection in 293 6E cells to yield further improved double mutants (DM, one mutation in heavy chain and one in light chain). Ten DM mutants were selected. Two best heavy chain mutations (H66 and H127) were combined by overlapping PCR. The resulted heavy chain with double mutations was paired with L34 or L36 to yield two triple mutants (TM1 and TM2).
binder,measurement,setting,value
"Ab-AI (antibody, V domains shown, Murine anti-WISE monoclonal antibody; also called WISE Loop 2 Mab (Ab-AI)) VH: QVTLKESGPGILQPSQTLSLTCSFSGFSLTTSGMGVSWIRQPSGGSLEWLAHIFWDDDKRYNPSLTSRLTISKDASRNQVFLKISSVDTADAATYYCARGGDYYSTGFGFDYWGQGTLVTVSA VL: DIVVSQAPSSLAVSVGEKIIMSCKSSQSLLHSSNQRNYLAWYQQKPGQSPKLLISWASIRESGVPDRFTGSGSGTDFTLTISSVKTEDLAVYYCHQYYSYSTFGAGTKLELK",binding result,[1],binds
same,binding result,[2],binds
same,binding result,[3],binds
"Ab-AC (antibody, V domains shown, Murine monoclonal antibody purified from hybridoma; also called WISE Loop 2 Mab (Ab-AC)) VH: QVTLKESGPEILQPSQTLSLTCSFSGFSLTTSGMGVSWIRQPSGGSLEWLAHIFWDDDKRYNPSLTSRLTISKDAPRNQVFLKITSVDTADAATYYCARGGDYYSTGFGFDYWGQGTLVTVSA VL: DIVVSQAPSSLAVSVGEKIIMSCKSSQSLLHSSNRRNYLAWYQQKPGQSPKLLISWASIRESGVPDRFTGSGSGTDFTLTISSVKTEDLAIYYCHQYYTYSTFGAGTKLELK",binding result,[4],binds
same,binding result,[5],binds
same,binding result,[6],binds
"Ab-AA (antibody, V domains shown, Murine monoclonal antibody purified from hybridoma; also called WISE Loop 2 Mab (Ab-AA)) VH: EVQLQQSGAELVRSGASVKLSCTASGFNIKDYYIHWMKQRPEQGLEWIGWIDPENGDTESAPKFQGKATMTADTSSNTAYLHLSSLTFEDTAVYYCNAEGYGSRHWYFDVWGAGTTVTVSS VL: DIVMSQSPSSLAVSAGEKVTMSCKSSQSLLNSRTRKNYLAWYQQKPGQSPKLLIYWASTRQSGVPDRFTGSGSGTDFTLTISSVQAEDLAVYYCKQSYNLLTFGAGTKLELK",binding result,[7],binds
same,binding result,[8],binds
same,binding result,[9],binds
same,binding result,[10],binds
same,binding result,[11],binds
"Ab-AH (antibody, V domains shown, Murine anti-WISE monoclonal antibody; also called WISE Loop 2 Mab (Ab-AH)) VH: EVQLQQSGAELVRSGASVRLSCTASGFNIKDFYMHWLKQRPEQGLEWIGWIDPENGDTESAPKFQGKATMTADTSSNTAYLQLSSLTSEDTAVYCCNAEGYDNSHWYFDVWGAGTTVTVSS VL: DIVMSQSPSSLAVSAGEKVTMSCKSSQSLLNSRTRKNYLAWYQQKPGQSPKLLIYWASTRKSGVPDRFIGSGSGTDFTLTISSVQAEDLAVYYCKQSYNLVTFGAGTKLELK",binding result,[12],binds
same,binding result,[13],binds
same,binding result,[14],binds
"D14 IgG2 single-residue mutant L34 (antibody, V domains shown, L34 is a mutant label, not a residue number; Tested as crude conditioned medium; also called L34(LC CDR1-7G)) VH: EVQLLESGGGLVQPGGSLRLSCAASGFTFSLYTMQWVRQAPGKGLEWVSGIGSSGGGTSYADSVKGRFTISRDNSKNTLYLQMNSLRAEDTAVYYCARGVSSWFFEYWGQGTLVTVSS VL: QYELTQPPSVAVSPGKTASITCAGDELGGKYAAWYQQKPGQAPVLVVYDDSDRPSGIPERFSGSNSGNTATLTISRVEAGDEADYYCQVWDRSSYHVVFGGGTKLTVLG",binding result,[15],binds
"D14 IgG2 single-residue mutant H66 (antibody, V domains shown, H66 is a mutant label, not a residue number; Tested as crude conditioned medium; also called H66(HC CDR2-8P)) VH: EVQLLESGGGLVQPGGSLRLSCAASGFTFSLYTMQWVRQAPGKGLEWVSGIGSSGGPTSYADSVKGRFTISRDNSKNTLYLQMNSLRAEDTAVYYCARGVSSWFFEYWGQGTLVTVSS VL: QYELTQPPSVAVSPGKTASITCAGDELGNKYAAWYQQKPGQAPVLVVYDDSDRPSGIPERFSGSNSGNTATLTISRVEAGDEADYYCQVWDRSSYHVVFGGGTKLTVLG",binding result,[15],binds
"D14-L36 (antibody, human IgG2, lambda, V domains shown, Tested as crude conditioned medium; also called L36(LC CDR1-7S); LC-CDR1-7 N->S) VH: EVQLLESGGGLVQPGGSLRLSCAASGFTFSLYTMQWVRQAPGKGLEWVSGIGSSGGGTSYADSVKGRFTISRDNSKNTLYLQMNSLRAEDTAVYYCARGVSSWFFEYWGQGTLVTVSS VL: QYELTQPPSVAVSPGKTASITCAGDELGSKYAAWYQQKPGQAPVLVVYDDSDRPSGIPERFSGSNSGNTATLTISRVEAGDEADYYCQVWDRSSYHVVFGGGTKLTVLG",binding result,[15],binds
"D14 IgG2 single-residue mutant H127 (antibody, V domains shown, H127 is a mutant label, not a residue number; Tested as crude conditioned medium; also called H127(HC CDR3-4G)) VH: EVQLLESGGGLVQPGGSLRLSCAASGFTFSLYTMQWVRQAPGKGLEWVSGIGSSGGGTSYADSVKGRFTISRDNSKNTLYLQMNSLRAEDTAVYYCARGVSGWFFEYWGQGTLVTVSS VL: QYELTQPPSVAVSPGKTASITCAGDELGNKYAAWYQQKPGQAPVLVVYDDSDRPSGIPERFSGSNSGNTATLTISRVEAGDEADYYCQVWDRSSYHVVFGGGTKLTVLG",binding result,[15],binds
"Ab-AD (antibody, V domains shown, Murine monoclonal antibody from hybridoma) VH: EVQLQQSGTVLARPGASVKMSCKASGYTFTSYWMHWVKQRPGQGLEWIVAIYPGNSDTNYNQKFKGKAKLTAVTSTSTAYMELNSLTNEDSAVYYCVRGFITAPYFDYWGQGTTLTVSS VL: DIQMTQSPASLAASVGESITITCQASENIYFSLAWYQQKQGRSPQLLIYHAKSLEDGVPSRFSGSGSGTQYSMKINSMQPEDTATYFCKQAYDHPFTFGTGTKLEMK",binding result,[11],binds
